Values joined by “and” are separate entries in the source; they are usually repeats but may differ in a detail not shown here. Equal entries are not always repeated.
Target: the molecule itself
Experiment: SDS-PAGE and immunoblot of detergent-solubilised mitochondrial membranes; HT-29 mitochondrial membranes solubilised in SDS or 0.1% DDM, 4%-12% Tris-glycine SDS-PAGE, anti-TSPO blot; cells untreated or treated with 10 ng/mL TNF, 1 uM PK 11195 or both for 24, 48 or 72 h

B1: translocator protein (18 kDa; tryptophan-rich sensory protein oxygen sensor, TSPO) (natural protein, human (endogenous in HT-29), UniProt P30536 1-169, looked up)
chain: MAPPWVPAMGFTLAPSLGCFVGSRFVHGEGLRWYAGLQKPSWHPPHWVLGPVWGTLYSAMGYGSYLVWKELGGFTEKAVVPLGLYTGQLALNWAWPPIFFGARQMGWALVDLLLVSGAAAATTVAWYQVSPLAARLLYPYLAWLAFTTTLNYCVWRDNHGWRGGRRLPE
notes: translocator protein (18 kDa), TSPO, human, endogenous in HT-29 colon carcinoma cells; Seen as monomer, dimer and trimer bands on an anti-TSPO blot; also called peripheral-type benzodiazepine receptor; mitochondrial translocator protein; source: endogenous, HT-29 mitochondrial membranes solubilised with SDS or 0.1% DDM
- stoichiometry N: 3 and 2
